# Test results published in patent publication US20080058263A1 (published 2008).
# Residue numbers refer to the chain shown, from its start.
# T1: VEGFR-3-Fc (UniProt P35916 25-328)
# T1 construct: domain: first three Ig domains; conditioned supernatant of 293T cells; also called VEGFR-3-Fc fusion protein; not shown: Fc fragment of the pIg vector
# T1 sequence (looked up): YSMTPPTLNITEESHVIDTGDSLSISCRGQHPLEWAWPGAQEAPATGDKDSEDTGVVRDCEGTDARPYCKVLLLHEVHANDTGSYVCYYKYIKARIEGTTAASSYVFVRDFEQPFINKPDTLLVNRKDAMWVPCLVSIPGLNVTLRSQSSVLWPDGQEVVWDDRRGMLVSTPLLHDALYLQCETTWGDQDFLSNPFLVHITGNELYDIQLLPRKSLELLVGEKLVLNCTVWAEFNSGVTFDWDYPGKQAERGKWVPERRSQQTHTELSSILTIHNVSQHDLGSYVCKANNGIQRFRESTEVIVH
# B1: 11-1 (ligand)
# chain: GQNHHEVVKFMDVYQRSYCHPIETLVDIFQEYPDEIEYIFKPSCVPLMRCGGCCNDEGLECVPTEESNITMQIMRIKPHQGQHIGEMSFLQHNKCECRPKKDLVFEQKLISEEDLNSAVDHHHHHH
# B2: 22-4 (ligand)
# chain: AHYNTEILKSIDNEWRKTQCMPREVCIDVGKEFGVATNTFFKPPCVSVYRCGGCCNSEGLQCMNTSTSYLSKTLFEIKPHQGQHIGEMSFLQHNKCECRPKKD
# B3: 22-3 (ligand)
# chain: AHYNTEILKSIDNEWRKTQCMPREVCIDVGKEFGVATNTFFKPPCVSVYRCGGCCNSEGLQCVPTEESNITMQIMRIKPHQGQHIGEMSFLQHNKCECRPKKD
# B4: 12-9 (ligand)
# chain: GQNHHEVVKFMDVYQRSYCHPIETLVDIFQEFGVATNTFFKPPCVSVYRCGGCCNDEGLECVPTEESNITMQIMRITVPLSQGPKPVTISFLQHNKCECRPKKDLVFEQKLISEEDLNSAVDHHHHHH
# B5: 12-11 (ligand)
# chain: B4 chain with D56S, E60Q
# notes: also called super-VEGF
# B6: 12-15 (ligand)
# chain: B4 chain with D56S, E60Q, L92A, Q93N, N95T, K96S, E98R, R100M, P101S, K103L
# B7: 12-13 (ligand)
# chain: B4 chain with L92A, Q93N, N95T, K96S, E98R, R100M, P101S, K103L, D104N
# notes: clone acquired a point mutation, Asp to Asn at the last C-terminal amino acid of the hybrid
# B8: 11-3 (ligand)
# chain: GQNHHEVVKFMDVYQRSYCHPIETLVDIFQEYPDEIEYIFKPSCVPLMRCGGCCNSEGLQCVPTEESNITMQIMRIKPHQGQHIGEMSFLQHNKCECRPKKD
# B9: 11-5 (ligand)
# chain: B8 chain with S56D, Q60E, L90A, Q91N, N93T, K94S, E96R, R98M, P99S, K101L
# B10: 11-7 (ligand)
# chain: B8 chain with L90A, Q91N, N93T, K94S, E96R, R98M, P99S, K101L
# B11: 61-15 (ligand)
# chain: GQNHHEVVKFMDVYQRSYCHPREVCIDVGKEYPDEIEYIFKPSCVPLMRCGGCCNSEGLQCVPTEESNITMQIMRITVPLSQGPKPVTISFANHTSCRCMSKLD
# B12: 61-11 (ligand)
# chain: B11 chain with A92L, N93Q, T95N, S96K, R98E, M100R, S101P, L103K
# B13: 11-13 (ligand)
# chain: B11 chain with R22I, V24T, C25L, I26V, V28I, G29F, K30Q, S56D, Q60E
# B14: 63-11 (ligand)
# chain: GQNHHEVVKFMDVYQRSYCHPREVCIDVGKEYPDEIEYIFKPPCVSVYRCGGCCNSEGLQCVPTEESNITMQIMRITVPLSQGPKPVTISFLQHNKCECRPKKD
# B15: 41-13 (ligand)
# chain: B11 chain with G1A, Q2H, N3Y, H4N, H5T, V7I, V8L, S56D, Q60E
# B16: 61-9 (ligand)
# chain: B14 chain with P43S, S46P, V47L, Y48M, S56D, Q60E
# B17: 63-15 (ligand)
# chain: B11 chain with S43P, P46S, L47V, M48Y
# B18: 43-15 (ligand)
# chain: AHYNTEILKFMDVYQRSYCHPREVCIDVGKEYPDEIEYIFKPPCVSVYRCGGCCNSEGLQCVPTEESNITMQIMRITVPLSQGPKPVTISFANHTSCRCMSKLD
# B19: 11-15 (ligand)
# chain: B11 chain with R22I, V24T, C25L, I26V, V28I, G29F, K30Q
# B20: 13-15 (ligand)
# chain: GQNHHEVVKFMDVYQRSYCHPIETLVDIFQEYPDEIEYIFKPPCVSVYRCGGCCNSEGLQCVPTEESNITMQIMRITVPLSQGPKPVTISFANHTSCRCMSKLD
# B21: 64-13 (ligand)
# chain: B11 chain with Y32F, P33G, D34V, E35A, I36T, E37N, Y38T, I39F, S56D, Q60E
# B22: 63-13 (ligand)
# chain: B11 chain with S43P, P46S, L47V, M48Y, S56D, Q60E
# B23: 62-15 (ligand)
# chain: GQNHHEVVKFMDVYQRSYCHPREVCIDVGKEFGVATNTFFKPPCVSVYRCGGCCNSEGLQCVPTEESNITMQIMRITVPLSQGPKPVTISFANHTSCRCMSKLD
# B24: 41-15 (ligand)
# chain: B18 chain with P43S, S46P, V47L, Y48M
# B25: 64-15 (ligand)
# chain: B23 chain with P43S, S46P, V47L, Y48M
# B26: 72-12 (ligand)
# chain: GQNHHEVVKSIDNEWRKTQCMPREVCIDVGKEFGVATNTFFKPPCVSVYRCGGCCNSEGLQCMNTSTSYLSKTLFEITVPLSQGPKPVTISFLQHNKCECRPKKD
# B27: 11-9 (ligand)
# chain: GQNHHEVVKFMDVYQRSYCHPIETLVDIFQEYPDEIEYIFKPSCVPLMRCGGCCNDEGLECVPTEESNITMQIMRITVPLSQGPKPVTISFLQHNKCECRPKKD
# B28: 11-11 (ligand)
# chain: B27 chain with D56S, E60Q
# B29: 12-3 (ligand)
# chain: GQNHHEVVKFMDVYQRSYCHPIETLVDIFQEFGVATNTFFKPPCVSVYRCGGCCNSEGLQCVPTEESNITMQIMRIKPHQGQHIGEMSFLQHNKCECRPKKDLVFEQKLISEEDLNSAVDHHHHHH
# B30: 12-7 (ligand)
# chain: B29 chain with L90A, Q91N, N93T, K94S, E96R, R98M, P99S, K101L
# notes: also called super-VEGF
# Molecular target: T2, VEGFR-1-Fc (UniProt P17948 27-338)
# T2 construct: domain: first three Ig domains; expressed in Drosophila S2 cells, purified on Protein A sepharose; also called VEGFR-1-Fc fusion protein; not shown: Fc fragment from the Signal-pIgPlus vector
# Assay: receptor-Fc IP
# In short: (§1)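 fusion protein at 400 ng/ml in an IP mix (PBS, 1.5% BSA, 0.06% Tween 20, 3 μg/ml heparin) was combined with sample supernatant at a 1:2 ratio. Bound ligand captured by immunoprecipitation with pentahistidine antibody.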
# T2 sequence (P17948 27-338): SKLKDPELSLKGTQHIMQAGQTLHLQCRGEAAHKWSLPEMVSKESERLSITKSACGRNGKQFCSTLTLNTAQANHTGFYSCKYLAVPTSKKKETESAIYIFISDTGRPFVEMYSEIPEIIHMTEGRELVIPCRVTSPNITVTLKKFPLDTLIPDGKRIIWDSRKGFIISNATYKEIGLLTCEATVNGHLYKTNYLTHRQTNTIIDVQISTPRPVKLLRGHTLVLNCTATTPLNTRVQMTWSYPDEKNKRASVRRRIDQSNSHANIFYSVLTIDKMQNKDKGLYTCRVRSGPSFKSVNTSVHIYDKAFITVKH
row,binding result,Binder
1,binds,B1
2,no binding,B2
3,no binding,B3
4,binds,B4
5,binds,B5
6,no binding,B6
7,binds,B7
8,binds,B8
9,binds,B9
10,binds,B10
11,no binding,B11
12,no binding,B12
13,binds,B13
14,no binding,B14
15,no binding,B15
16,no binding,B16
17,no binding,B17
18,no binding,B18
19,binds,B19
20,binds,B20
21,no binding,B21
22,no binding,B22
23,no binding,B23
24,no binding,B24
25,no binding,B25
26,no binding,B26
27,binds,B27
28,binds,B28
29,binds,B29
30,binds,B30

# Molecular target: T3, VEGFR-2-Fc (UniProt P35968 20-322)
# T3 construct: domain: first 3 Ig domains; conditioned supernatant of 293T cells; also called VEGFR-2-Fc fusion protein; not shown: Fc fragment of the pIg vector
# Assay: receptor-Fc IP
# In short: as §1
# T3 sequence (P35968 20-322): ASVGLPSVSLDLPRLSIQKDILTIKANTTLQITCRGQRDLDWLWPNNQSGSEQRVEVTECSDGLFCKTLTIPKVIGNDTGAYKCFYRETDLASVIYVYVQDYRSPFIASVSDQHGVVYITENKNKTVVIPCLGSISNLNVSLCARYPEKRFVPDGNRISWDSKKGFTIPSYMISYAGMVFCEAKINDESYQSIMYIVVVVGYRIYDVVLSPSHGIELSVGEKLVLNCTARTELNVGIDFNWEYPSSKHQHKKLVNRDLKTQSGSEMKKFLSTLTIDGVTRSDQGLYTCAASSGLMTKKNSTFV
row,binding result,Binder
1,binds,B1
2,binds,B2
3,no binding,B3
4,no binding,B4
5,binds,B5
6,binds,B6
7,no binding,B7
8,binds,B8
9,binds,B9
10,binds,B10
11,no binding,B11
12,no binding,B12
13,no binding,B13
14,no binding,B14
15,no binding,B15
16,no binding,B16
17,no binding,B17
18,no binding,B18
19,binds,B19
20,no binding,B20
21,no binding,B21
22,no binding,B22
23,no binding,B23
24,no binding,B24
25,no binding,B25
26,binds,B26
27,no binding,B27
28,binds,B28
29,binds,B29
30,binds,B30

# Molecular target: T1, VEGFR-3-Fc
# Assay: receptor-Fc IP
# In short: as §1
row,binding result,Binder
1,no binding,B1
2,binds,B2
3,binds,B3
4,binds,B4
5,binds,B5
6,binds,B6
7,binds,B7
8,no binding,B8
9,no binding,B9
10,no binding,B10
11,no binding,B11
12,no binding,B12
13,no binding,B13
14,no binding,B14
15,no binding,B15
16,no binding,B16
17,no binding,B17
18,no binding,B18
19,no binding,B19
20,no binding,B20
21,no binding,B21
22,no binding,B22
23,no binding,B23
24,no binding,B24
25,no binding,B25
26,binds,B26
27,no binding,B27
28,no binding,B28
29,no binding,B29
30,binds,B30
